Read-outs that look alike come from different tables or passages of the source.

Data set [1] has as its target T1, GST-OsLUX (Oryza sativa, UniProt Q94DH3 1-238).
T1 sequence: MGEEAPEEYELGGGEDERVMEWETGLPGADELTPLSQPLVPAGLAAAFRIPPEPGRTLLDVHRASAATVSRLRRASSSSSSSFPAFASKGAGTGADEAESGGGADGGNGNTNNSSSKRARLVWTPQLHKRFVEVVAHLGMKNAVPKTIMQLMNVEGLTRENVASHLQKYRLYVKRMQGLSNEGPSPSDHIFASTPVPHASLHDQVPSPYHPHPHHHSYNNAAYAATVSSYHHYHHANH
Kind of data set: EMSA. On the technique in general: A gel shift assay detects complexes by their altered migration in electrophoresis.

In data set [2] the target is T1, GST-OsLUX. Kind of data set: EMSA. This is another data set of the same source.

B1: Ghd7-P (LBS, 3 copies) (dsDNA)
DNA 1: CAGCACGAATCTTGAGCAGCACGAATCTTGAGCAGCACGAATCTTGAG
DNA 2: CTCAAGATTCGTGCTGCTCAAGATTCGTGCTGCTCAAGATTCGTGCTG
Turning to B1, the binding result in the data set with GST-OsLUX [1] is “binds”.

B2: Hd1-P (S4 LBS, 3 copies) (dsDNA)
DNA 1: CGCTGGATTCGACTTGCGCTGGATTCGACTTGCGCTGGATTCGACTTG
DNA 2: CAAGTCGAATCCAGCGCAAGTCGAATCCAGCGCAAGTCGAATCCAGCG
As to B2, the binding result with GST-OsLUX [2] is given as “binds”.
